Source: PMC10404690

How the values were obtained:
K18 fibril seeds (human) [1] = biological target: K18 fibril seeds (human) (UniProt P10636)
[2] = biological target: AD tau filaments (in AD brain homogenate) (human (endogenous in AD brain tissue))
htau40 seeds (human) = htau40 seeds (human) (UniProt P10636)
K18 fibril seeds (human) [3] = biological target: K18 fibril seeds (human) (UniProt P10636); remark: listed apart in the source
[4] = biological target: Atto633-labeled 4R MAP2 monomer (UniProt P11137); experiment: fluorescence polarisation; fluorescence anisotropy; 100 nM Atto633-labeled monomer titrated with K18 seeds (0–20 μM monomer equivalents), equilibrated 16 h at 22 °C; one-site binding model; apparent KD, based on monomer equivalents of seeds, not seed concentrations
[5] = biological target: Atto633-labeled K18 monomer (human) (UniProt P10636); experiment: as above
[6] = biological target: Atto633-labeled 3R MAP2 monomer (UniProt P11137); experiment: as above

Chain of 4R MAP2 (P11137 other isoform, or with tags, fused parts or gaps): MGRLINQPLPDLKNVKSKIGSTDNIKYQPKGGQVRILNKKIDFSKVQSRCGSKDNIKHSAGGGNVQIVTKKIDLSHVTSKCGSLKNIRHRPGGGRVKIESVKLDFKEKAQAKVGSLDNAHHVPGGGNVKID
Chain of K18 fibril seeds (P10636 561-689): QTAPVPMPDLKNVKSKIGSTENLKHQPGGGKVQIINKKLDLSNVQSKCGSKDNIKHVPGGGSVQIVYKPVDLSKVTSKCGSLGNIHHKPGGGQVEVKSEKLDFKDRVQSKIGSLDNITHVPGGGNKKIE
Chain of K18 fibril seeds (human) (P10636 561-689): as above
Chain of htau40 seeds (human) (P10636 other isoform, or with tags, fused parts or gaps): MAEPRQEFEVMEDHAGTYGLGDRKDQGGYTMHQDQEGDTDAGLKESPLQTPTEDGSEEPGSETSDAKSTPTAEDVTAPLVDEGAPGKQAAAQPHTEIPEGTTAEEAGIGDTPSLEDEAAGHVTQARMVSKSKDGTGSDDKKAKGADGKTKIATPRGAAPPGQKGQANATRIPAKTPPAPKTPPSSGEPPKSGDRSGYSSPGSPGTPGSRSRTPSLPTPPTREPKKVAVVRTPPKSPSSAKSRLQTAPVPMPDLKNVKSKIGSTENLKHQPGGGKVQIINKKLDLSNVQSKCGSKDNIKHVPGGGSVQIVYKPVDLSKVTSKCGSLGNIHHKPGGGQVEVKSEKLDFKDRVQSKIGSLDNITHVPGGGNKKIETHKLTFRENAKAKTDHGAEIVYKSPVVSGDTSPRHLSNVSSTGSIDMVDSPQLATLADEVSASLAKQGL

For “3R MAP2 (from UniProt P11137-4 362-490) (domain or fragment)”, the percent of HEK293 cells expressing htau40P301S-EYFP that contain tau puncta 24 h after transduction of K18 seeds preincubated with 3R MAP2 (25% without MAP2) (K18 fibril seeds (human) [1]) was 11 % of cells, the amplification of tau fibrils from AD brain homogenate (5 μM htau40 monomer, cycles of shaking and growth for 30 h; sedimentation, SDS-PAGE, densitometry) with 5 μM 3R MAP2 [2] was over 80 % reduction and the tau fibril growth (10 μM htau40 monomers on 1% htau40 seeds, 21 h, 37 °C; sedimentation, SDS-PAGE) with 10 μM 3R MAP2, relative to the reaction without MAP2 set to 100% (% of growth without MAP2) (htau40 seeds (human)) was 56. It also gave an IC50 of inhibition of K18-seeded aggregation of 10 μM K18 monomers (10% seeds, 6 h, 37 °C; sedimentation, SDS-PAGE, Coomassie; 12.5 nM-25 μM 3R MAP2); blocks recruitment of K18 monomers onto K18 seeds (K18 fibril seeds (human) [3]) of 2.2 µM.
For “4R MAP2 (from UniProt P11137-4 362-490) (domain or fragment)”, the percent of HEK293 cells expressing htau40P301S-EYFP that contain tau puncta 24 h after transduction of K18 seeds preincubated with 4R MAP2 (25% without MAP2) (K18 fibril seeds (human) [1]) was 6.4 % of cells, the amplification of tau fibrils from AD brain homogenate (5 μM htau40 monomer, cycles of shaking and growth for 30 h; sedimentation, SDS-PAGE, densitometry) with 5 μM 4R MAP2 [2] was over 80 % reduction and the tau fibril growth (10 μM htau40 monomers on 1% htau40 seeds, 21 h, 37 °C; sedimentation, SDS-PAGE) with 10 μM 4R MAP2, relative to the reaction without MAP2 set to 100% (% of growth without MAP2) (htau40 seeds (human)) was 25. For the same substance, the IC50 of inhibition of K18-seeded aggregation of 10 μM K18 monomers (10% seeds, 6 h, 37 °C; sedimentation, SDS-PAGE, Coomassie; 12.5 nM-15 μM 4R MAP2); blocks recruitment of K18 monomers onto K18 seeds (K18 fibril seeds (human) [3]) was 1.1 µM.
“K18 fibril seeds (from UniProt P10636-8 244-372)” was tested, and the Kd [4] was 1.3 µM, the Kd [5] was 5.4 µM and the Kd [6] was 1.6 µM.
